Test results reported in US6803203B1, “DNA-PK assay” (Brookhaven Science Associates, priority 1993, dated 2004).
Entries after “also recorded” stand apart in the source; their conditions may differ. Residues, ends and D or L forms follow the SMILES beside them. No end group written: not given here.

Columns and labels:
Assay type in all cases: biochemical
[1] = target: T1, DNA-PK (Homo sapiens, UniProt P78527); assay: Phosphorylation of synthetic peptides by purified DNA-PK (phosphocellulose paper binding method); conditions: for PO4 incorp.: each peptide at 200 μM, calf thymus DNA 10 μg/ml, 30° C.
T1 construct: DNA-PK was purified from HeLa cells; endogenous in cells; host or cells: HeLa S3 cells; the endogenous enzyme was purified in house by chromatography
Procedure: Phenylmethylsulfonyl fluoride was added to the S10 (10,000×g) supernatant as a powder to 0.5 mM. DNA-PK activity was found in the 100,000×g (ribosomal) pellet. DNA-PK preparations typically were made from 200 ml of S10 supernatant that had been derived from approximately 10^10 cells. All steps were performed at 4° C. unless indicated otherwise.
Phosphorylation reactions were performed in a 20- or 40-μl final volume as previously described by Chen, et al., J. Virol., 10:5131-5140 (1991) and Lees-Miller, et al., Mol. Cell. […] In particular, in addition to synthetic peptide substrates or protein substrates, the assays contained 50 mM HEPES (pH 7.5), 100 mM KCl, 10 mM MgCl2, 2 mM EGTA, 0.1 mM EDTA and 0.125 mM ATP containing [^32P]ATP at 0.2 mCi/ml. […] Assays were started by adding 1 μl of kinase sample. Incubations were at 30° C. for 7 min.
For determinations of kinetic constants, the ATP concentration was 0.5 mM. When present, hsp90 was included at 0.5 mg/ml. Assay mixtures were preincubated at 30° C. for 2 min before addition of 0.1 to 0.5 μg (protein) of the DNA-PK preparation.
In particular, kinase reactions were stopped by adding an equal volume of 30% acetic acid, and portions of the acidified reaction were spotted on 2- by 2-cm squares of P-81 paper (Whatman, Inc., Clifton, N.J.). […] The P-81 squares were then transferred to scintillation vials containing 3.5 ml of water, and bound radioactivity was determined from the Cerenkov radiation. Enzyme activity was calculated from triplicate determinations, using the specific activity of the ATP and the protein concentration, which was determined by the Bio-Rad dye-binding assay (Bio-Rad (Bradford) Protein Assay Kit 1, Cat. No. 500-001, Bio-Rad Laboratories, Hercules, Calif.), using bovine serum albumin as the standard. […] The kinetic constants, Km and Vmax for each peptide sequence were calculated from plots of 1/[S] versus 1/V, the values reported are averages of at least two independent determinations.

[2] = target: T1, DNA-PK; assay: Poorer substrate peptides added to (SEQ ID NO: 8) phosphorylation assays; conditions: peptide up to 250 μM; (SEQ ID NO: 8) at 100 μM
[3] = target: T1, DNA-PK; assay: Conditions that result in 50% inhibition of DNA-PK activity; conditions: for IC50 / 50% Inhibition: inhibition of DNA-PK activity in vitro
Procedure: Experiments were performed to determine optimal DNA-PK assay conditions. It was determined that DNA-PK is active over a broad pH range and the most common buffers with the exception of phosphate buffers. A summary of assay conditions that optimize DNA-PK activity in vitro is found in Table 4 along with a summary of conditions that result in 50% inhibition of DNA-PK activity.
The methods used to obtain results in the second section (Inhibitor section) of Table 4 are illustrative of methods that are applicable to identifying substances that alter the activity of DNA-PK.

[4] = target: T1, DNA-PK; assay: Phosphorylation of recombinant protein substrates by purified DNA-PK (SDS-PAGE, phosphorimage); conditions: 5 μg/ml calf thymus DNA compared to no addition of DNA; 30 minutes at 30° C.
Procedure: The recombinant protein substrates, a total of six, (at approximately 0.1 mg/ml final concentration) were separately mixed with hsp90 in a phosphorylation reaction with purified DNA-PK (0.6 pg, 0.02 units/assay) without (−) or with (+) 5 μg/ml calf thymus DNA, in the presence of ^32P-ATP for 30 minutes at 30° C. as described by Lees-Miller, et al., Mol. Cell. Biol., 12:5041-5049 (1992). The phosphorylation reactions were stopped with SDS sample buffer and analyzed with SDS-PAGE. The gel was fixed, stained with Coomassie brilliant blue, dried and developed by autoradiographic procedures. The results of which can be seen in FIG. 9.

[5] = target: T1, DNA-PK; assay: Identification of phosphorylated residues (sequence analysis, S-ethylcysteine conversion); conditions: p53 residue numbering
Procedure: To determine which of these were phosphorylated, after incubation with DNA-PK, radiochemical sequence analysis was performed by using a Beckman 890M spinning-cup sequencer (Beckman Instruments, Palo Alto, Calif.) as described by Lees-Miller, et al., J. Biol. Chem., 264:17275-17280 (1989). The peptide was isolated by reverse-phase HPLC, peptidylphosphoserine was converted to S-ethylcysteine, and the position of phenylthiohydantoin (PTH)-S-ethylcysteine was determined by chemical microsequence analysis using an Automated Protein/Peptide sequencer (Applied Biosystems, Foster City, Calif.) and a 120 PTH-Amino Acid Analyzer (Applied Biosystems, Foster City, Calif.) as described by Lees-Miller, et al., J. Biol. Chem., 264:17275-17280 (1989).
A peptide corresponding to mouse p53 residues Met^4-Pro^31, (SEQ ID NO: 2), was also examined (See Table 1). Serine 7 of mouse p53 is at the position equivalent to proline 4 of human p53, and the glutamine at position 8 of mouse p53 is conserved among mammals as reported by Soussi, et al., Oncogene, 5:945-952 (1990). After phosphorylation of (SEQ ID NO: 2) the peptide was digested with endoproteinase Glu-C, and the resulting fragments were separated by reverse-phase HPLC. […] Each peptide was treated to convert phosphoserine to S-ethylcysteine; then they were resequenced.

Row | Compound | inhibition of phosphorylation of (SEQ ID NO: 8) [2] | substrate activity for DNA-PK (in words) [1] | PO4 incorp. [1] | also measured
1 | CSCC[C@H](NC(=O)[C@H](C)NC(=O)[C@H](CCC(N)=O)NC(=O)[C@H](CO)NC(=O)[C@@H]1CCCN1C(=O)[C@H](CC(C)C)NC(=O)[C@@H]1CCCN1C(=O)[C@H](CO)NC(=O)[C@H](CC(C)C)NC(=O)[C@@H](NC(=O)[C@H](CC(N)=O)NC(=O)[C@@H](N)CC(N)=O)C(C)C)C(=O)N[C@@H](CC(=O)O)C(=O)N[C@@H](CC(=O)O)C(=O)N[C@@H](CC(C)C)C(=O)N[C@@H](CCSC)C(=O)N[C@@H](CCCCN)C(=O)N[C@@H](CCCCN)C(=O)O [SEQ ID NO: 6] |  |  |  | Km relative to (SEQ ID NO: 4) [1]: twice as high
2 | EPPLSEEAFADLWKK [SEQ ID NO: 32] | None of these peptides significantly inhibited the phosphorylation | effectively eliminated the ability of the sequence to act as a DNA-PK substrate | 0.4 pmol/min/μg of DNA-PK | 
3 | Phosphate |  |  |  | effect on DNA-PK activity (in words) [3]: inhibited; IC50 [3]: 10 mM
4 | CC(C)C[C@H](NC(=O)[C@H](CC(=O)O)NC(=O)[C@H](C)NC(=O)[C@H](Cc1ccccc1)NC(=O)[C@H](C)NC(=O)[C@H](CCC(=O)O)NC(=O)[C@H](CCC(N)=O)NC(=O)[C@H](CO)NC(=O)[C@H](CC(C)C)NC(=O)[C@@H]1CCCN1C(=O)[C@@H]1CCCN1C(=O)[C@@H](N)CCC(=O)O)C(=O)N[C@@H](Cc1c[nH]c2ccccc12)C(=O)N[C@@H](CCCCN)C(=O)N[C@@H](CCCCN)C(=O)O [SEQ ID NO: 11] (H-EPPLSQEAFADLWKK-OH) |  |  |  | Km relative to (SEQ ID NO: 8) [1]: twofold increase
5 | hsp90: human heat shock protein hsp90, a known DNA-PK substrate [reference compound] |  |  |  | increase in phosphate incorporation by addition of double stranded DNA [4]: 20 fold
6 | Ser Lys Lys Gly Gln Ser Thr Ser Arg His Lys Lys Leu Met Phe (SKKGQSTSRHKKLMF; Human p53 residues 371-385; listed as Homo sapiens) [SEQ ID NO: 30] |  | phosphorylated at a negligible rate | 0 pmol/min/μg of DNA-PK | 
7 | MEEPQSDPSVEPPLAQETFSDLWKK [SEQ ID NO: 5] | None of these peptides significantly inhibited the phosphorylation | ineffective substrate for DNA-PK | 5.3 pmol/min/μg of DNA-PK | rate of phosphorylation relative to (SEQ ID NO: 4) ([1]; at 200 μM): about 10%
8 | MEESQSDISLELPLSQETFSGLWKLLPP [SEQ ID NO: 2] |  |  |  | site phosphorylated by DNA-PK [5]: Ser^7 and Ser^18
9 | EPPLAQETFSDLWKK [SEQ ID NO: 22] |  | not phosphorylated efficiently by DNA-PK |  | 
10 | His Lys Lys Leu Met Phe Lys Thr Glu Gly Pro Asp Ser Asp (HKKLMFKTEGPDSD; Human p53 residues 380-393; listed as Homo sapiens) [SEQ ID NO: 31] | None of these peptides significantly inhibited the phosphorylation | phosphorylated at a negligible rate; also recorded: not substrates for DNA-PK | 0 pmol/min/μg of DNA-PK | 
11 | PESEQAFADLWKK [SEQ ID NO: 23] |  | not phosphorylated by DNA-PK |  | 
12 | EPPLSNEAFADLWKK [SEQ ID NO: 33] | None of these peptides significantly inhibited the phosphorylation | eliminated the ability of the sequence to act as a DNA-PK substrate | 0.1 pmol/min/μg of DNA-PK | 
13 | EPPLSYEAFADLLKK [SEQ ID NO: 34] |  |  | 2.3 pmol/min/μg of DNA-PK | 
14 | O=P(O)(O)OP(=O)(O)O [Pyrophosphate] |  |  |  | effect on DNA-PK activity (in words) [3]: inhibited; IC50 [3]: 3 mM
15 | EPPLSQETFKK [SEQ ID NO: 9] | None of these peptides significantly inhibited the phosphorylation |  | 15 pmol/min/μg of DNA-PK | rate of phosphorylation relative to control (SEQ ID NO: 8) [1]: approximately 10%
16 | OCC(O)CO [Glycerol] |  |  |  | effect on DNA-PK activity (in words) [3]: inhibited; 50% Inhibition [3]: 25 % v/v
17 | Heparin [reference compound] |  |  |  | effect on DNA-PK activity (in words) [3]: inhibited; 50% Inhibition [3]: 1 µg/mL
18 | Glu Pro Pro Leu Ser Gln Glu Thr Phe Ser Asp—Lys Lys (EPPLSQETFSDKK; Human p53 residues 11-21; listed as Homo sapiens) [SEQ ID NO: 10] | None of these peptides significantly inhibited the phosphorylation |  | 12 pmol/min/μg of DNA-PK | rate of phosphorylation relative to control (SEQ ID NO: 8) [1]: approximately 10%
19 | EPPDSQEAFADLWKK [SEQ ID NO: 17] |  | less effective substrate for DNA-PK than peptides (SEQ ID NOS: 15 AND 16) | 48 pmol/min/μg of DNA-PK | 
